From article doi:10.1101/2020.12.15.422910

Biological target: OsBOR3_(Δ1-642) (Oryza sativa)
Experiment: cryo-EM structure

stoichiometry N: 2
Substance: OsBOR3_(Δ1-642) (domain or fragment)
